# Measurements: US20220306758A1 (Regeneron, published 2022)
# T1: human BCMA on cells (endogenous, on multiple myeloma and lymphoma cell lines) (human, UniProt Q02223 1-184)
# T1 sequence: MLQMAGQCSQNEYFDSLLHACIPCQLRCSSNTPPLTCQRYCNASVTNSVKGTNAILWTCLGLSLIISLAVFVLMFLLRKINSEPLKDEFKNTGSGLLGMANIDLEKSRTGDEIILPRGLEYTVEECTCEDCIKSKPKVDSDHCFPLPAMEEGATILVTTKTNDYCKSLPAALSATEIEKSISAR
# T2: mouse BCMA-MFC (BCMA with C-terminal mFc tag) (mouse)
# T2 construct: Tested at 30 nM only
# T2 chain: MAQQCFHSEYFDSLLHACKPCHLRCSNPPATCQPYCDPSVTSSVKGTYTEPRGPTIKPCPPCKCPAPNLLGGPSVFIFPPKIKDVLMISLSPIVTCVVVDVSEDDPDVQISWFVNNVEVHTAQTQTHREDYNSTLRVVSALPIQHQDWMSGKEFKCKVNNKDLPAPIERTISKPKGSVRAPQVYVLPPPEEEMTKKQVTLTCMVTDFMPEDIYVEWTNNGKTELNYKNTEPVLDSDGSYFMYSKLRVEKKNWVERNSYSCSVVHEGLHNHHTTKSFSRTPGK
# T3: human BCMA-MMH (extracellular domain of human BCMA with C-terminal myc-myc-hexahistidine tag) (human)
# T3 construct: Monomeric antigen; the entry holds the ectodomain and the myc-myc-His tag; also called hBCMA.mmh; hBCMA.mmH
# T3 chain: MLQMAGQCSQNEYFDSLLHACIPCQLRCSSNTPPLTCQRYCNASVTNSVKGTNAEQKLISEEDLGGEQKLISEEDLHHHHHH
# T4: human BCMA-MFC (extracellular domain of human BCMA with C-terminal mFc tag) (human)
# T4 construct: also called hBCMA.mFc
# T4 chain: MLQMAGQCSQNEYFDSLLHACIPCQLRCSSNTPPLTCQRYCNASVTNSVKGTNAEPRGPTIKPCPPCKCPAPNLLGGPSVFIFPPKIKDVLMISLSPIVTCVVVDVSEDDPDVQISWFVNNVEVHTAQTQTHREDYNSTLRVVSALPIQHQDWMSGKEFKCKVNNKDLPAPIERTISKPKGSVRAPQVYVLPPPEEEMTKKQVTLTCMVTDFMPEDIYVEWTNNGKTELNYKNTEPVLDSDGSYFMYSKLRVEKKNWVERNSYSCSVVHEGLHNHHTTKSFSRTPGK
# How the values were obtained:
# [1] = target: T1, human BCMA on cells (endogenous, on …); test: cell-based or functional assay
# [2] = target: T1, human BCMA on cells (endogenous, on …); test: cell-based or functional assay; remark: listed apart in the source
# [3] = target: T1, human BCMA on cells (endogenous, on …); test: cell-based or functional assay; remark: listed apart in the source
# [4] = target: T1, human BCMA on cells (endogenous, on …); test: cell-based or functional assay; remark: listed apart in the source
# [5] = target: T2, mouse BCMA-MFC (BCMA with C-terminal …); test: SPR, Biacore, mAb captured by anti-hFc, 25 C
# Procedure: (§1) The CM5 Biacore sensor surface was derivatized by amine coupling with a monoclonal mouse anti-human Fc antibody (GE, #BR-1008-39) to capture purified anti-BCMA mAbs and anti-BCMA×anti-CD3 bispecific mAbs. All Biacore binding studies were performed in a buffer composed of 0.01M HEPES pH 7.4, 0.15M NaCl, 3 mM EDTA, 0.05% v/v Surfactant P20 (HBS-ET running buffer). […] Antigen samples were then injected over the anti-BCMA and anti-BCMA×anti-CD3 bispecific mAbs captured surfaces at a flow rate of 30 μL/minute. Antibody-reagent association was monitored for 5 minutes while dissociation in HBS-ET running buffer was monitored for 10 minutes. All of the binding kinetics experiments were performed at 25° C. Kinetic association (kₐ) and dissociation (kd) rate constants were determined by fitting the real-time sensorgrams to a 1:1 binding model using Scrubber 2.0c curve fitting software. Binding dissociation equilibrium constants (KD) and dissociative half-lives (t½) were calculated from the kinetic rate constants as: […]
# [6] = target: T5, monkey BCMA-MFC (monkey BCMA with C-terminal mFc tag) (monkey); test: SPR, Biacore, mAb captured by anti-hFc, 25 C
# T5 construct: also called mfBCMA.mFc
# Procedure: as §1
# [7] = target: T6, monkey BCMA-MMH (monkey BCMA with C-terminal myc-myc-hexahistidine tag) (monkey); test: SPR, Biacore, mAb captured by anti-hFc, 25 C
# T6 construct: The words 'extracellular domain' stand before human BCMA in the sentence and are read as applying to the monkey construct too; also called mfBCMA.mmh
# Procedure: as §1
# [8] = target: T3, human BCMA-MMH (extracellular domain of …); test: SPR, Biacore, mAb captured by anti-hFc, 25 C
# Procedure: as §1
# [9] = target: T4, human BCMA-MFC (extracellular domain of …); test: SPR, Biacore, mAb captured by anti-hFc, 25 C
# Procedure: as §1
Binder,"MFI fold change over cells incubated in media only, NCI-H929, 18 h with 67 nM antibody, then stained with the same antibody [2] [fold]","MFI fold change over cells incubated in media only, NCI-H929, 18 h with 667 nM antibody, then stained with the same antibody [2] [fold]","MFI fold change over cells incubated in media only, Molp8, 18 h with 67 nM antibody, then stained with the same antibody [3] [fold]","MFI fold change over cells incubated in media only, Molp8, 18 h with 667 nM antibody, then stained with the same antibody [3] [fold]","MFI fold change over cells incubated in media only, U266, 18 h with 67 nM antibody, then stained with the same antibody [4] [fold]",30 nM mfBCMA.mFc Bind (RU) (mouse BCMA-MFC by the table's title) [5],Kd [5] [nM],koff [5] [s⁻¹],kon [5] [M⁻¹ s⁻¹],t½ [5] [min],90 nM hBCMA.mmh Bind (RU) [8] [RU],Kd [8] [nM],koff [8] [s⁻¹],kon [8] [M⁻¹ s⁻¹],t½ [8] [min],30 nM hBCMA.mFc Bind (RU) [9] [RU],Kd [9] [nM],koff [9] [s⁻¹],kon [9] [M⁻¹ s⁻¹],t½ [9] [min],further results
"mAb21581, bivalent anti-BCMA antibody (parent of REGN5458) (antibody, V domains shown) VH: EVQLVESGGGLVQPGGSLRLSCAASGFTFSNFWMTWVRQAPGKGLEWVANMNQDGSEKYYVDSVKGRFTISRDNAKSSLYLQMNSLRAEDTAVYYCARDREYCISTSCYDDFDYWGQGTLVTVSS VL: not shown",1.2,1.4,2.3,3.7,1.8,,,,,,,,,,,,,,,,"MFI fold change over cells incubated in media only, MM1S, 18 h with 67 nM antibody, then stained with the same antibody [1]: 7.3 fold; MFI fold change over cells incubated in media only, MM1S, 18 h with 667 nM antibody, then stained with the same antibody [1]: 7 fold; MFI fold change over cells incubated in media only, U266, 18 h with 667 nM antibody, then stained with the same antibody [4]: 2.3 fold"
"mAb16711 (antibody, V domains shown, Anti-BCMA monoclonal antibody; human Fc (captured by anti-human Fc)) VH: QVQLVESGGGVVQPGRSLRLSCAASGFTFSTYGIHWVRQAPGKGLEWVAVILHDGSSNYYAESVKGRFIISRDNSKNTLYLQMNSLRAEDTALYYCTKRYSEAAGPNWFDPWGQGTLVTVSS VL: DIQMTQSPSSVSASVGDRVTITCRASRGISSWLAWYQQKPGKAPKLLIHAASSLQSGVPSRFSGSGSGTDFTLTISSLQPEDFATYYCQQAISFPFTFGPGTKVDIK",2.8,2.1,3.5,3,2.2,90,1.02,0.0011,1.07e+06,10.5,22.2,1.73,0.00347,2.01e+06,3.3,114,0.103,0.00019,1.85e+06,60.8,"30 nM mfBCMA.mFc Bind (RU) [6]: 0.9 RU; binding result [6]: no binding (tested: 30 nM); 90 nM mfBCMA.mmh Bind (RU) [7]: -0.5 RU; MFI fold change over cells incubated in media only, U266, 18 h with 667 nM antibody, then stained with the same antibody [4]: 2.2 fold"
"mAb16716 (antibody, V domains shown, Anti-BCMA monoclonal antibody; human Fc (captured by anti-human Fc)) VH: not shown VL: DIQMTQSPSSVSASLGDRVTITCRASQGISSWLAWYQRKPGKAPKLLIYAASSLQSGVPSRFSGSGSGADFTLTISSLQPEDFATYYCQQAKSVPFTFGPGTKVDIK",,,,,,33.4,18.8,0.00385,205000,3,26.4,3.56,0.00299,841000,3.9,120,0.0968,8.35e-05,862000,138,90 nM mfBCMA.mmh Bind (RU) [7]: 0.8 RU; binding result [7]: no binding (tested: 90 nM)
"mAb16732 (REGN4514) (antibody, V domains shown, Anti-BCMA monoclonal antibody; human Fc (captured by anti-human Fc)) VH: EVQLVESGGGLVQPGRSLRLSCAASGFTFDDYAMHWVRQAPGKGLEWVSGISWNSGNMGYADSVKGRFTISRDNAKNSLFLQMHSLRAEDTAFYYCAKVRLTAFDFWGQGTLVTVSS VL: DIQMTQSPSSLSASVGDRVTITCRTSQSIGNYLNWFQQKPGKAPKLLIYTASSLQNGVPSRFTGSGSGTDFTLTISSLQPEDFVIYYCQQSFSTPYTFGQGTKLEIK",,,,,,110,0.677,0.000269,397000,43,25.3,2.69,0.00285,1.06e+06,4.1,124,0.0422,4.53e-05,1.07e+06,255,30 nM mfBCMA.mFc Bind (RU) [6]: 40.3 RU; Kd [6]: 14.7 nM; koff [6]: 0.00724 s⁻¹; kon [6]: 492000 M⁻¹ s⁻¹; t½ [6]: 1.6 min
"mAb16747 (REGN4515) (antibody, V domains shown, Anti-BCMA monoclonal antibody; human Fc (captured by anti-human Fc)) VH: QVQLVESGGGLVKPGGSLRLSCAASGFTFSDYYISWIRQAPGKGLEWVSYISSSGSSIKYADSVKGRFTISRDNAKNSLYLQMNSLRAEDTAVYYCAREGGNYGMDVWGQGTTVTVSS VL: DIQMTQSPSSVSASVGDRVTITCRASQGINNWLVWYQQKPGKAPKLLIYAATSLQSGVPSRFSGSGSGTDFTLTISSLQPEDFATYYCQQANSFPPTFGQGTKLEIK",1.8,2.1,2.2,0.6,1.5,108,4.42,0.00418,947000,2.8,31.4,2.84,0.00247,869000,4.7,146,0.0633,8.95e-05,1.41e+06,129,"30 nM mfBCMA.mFc Bind (RU) [6]: 101 RU; Kd [6]: 3.37 nM; koff [6]: 0.00716 s⁻¹; kon [6]: 2.13e+06 M⁻¹ s⁻¹; t½ [6]: 1.6 min; MFI fold change over cells incubated in media only, U266, 18 h with 667 nM antibody, then stained with the same antibody [4]: 1.7 fold"
